# Data reported in patent CN114133451A (HANGZHOU MEDICAL COLLEGE, dated 2022).
# T1: 重组弓形虫毒力因子ROP18 (Toxoplasma gondii, UniProt Q2PAY2 1-554)
# T1 construct: also called 弓形虫棒状体蛋白18; rhoptry protein 18; not shown: vector-derived tag of pET28a (fusion protein purified on Ni-NTA)
# T1 sequence (looked up): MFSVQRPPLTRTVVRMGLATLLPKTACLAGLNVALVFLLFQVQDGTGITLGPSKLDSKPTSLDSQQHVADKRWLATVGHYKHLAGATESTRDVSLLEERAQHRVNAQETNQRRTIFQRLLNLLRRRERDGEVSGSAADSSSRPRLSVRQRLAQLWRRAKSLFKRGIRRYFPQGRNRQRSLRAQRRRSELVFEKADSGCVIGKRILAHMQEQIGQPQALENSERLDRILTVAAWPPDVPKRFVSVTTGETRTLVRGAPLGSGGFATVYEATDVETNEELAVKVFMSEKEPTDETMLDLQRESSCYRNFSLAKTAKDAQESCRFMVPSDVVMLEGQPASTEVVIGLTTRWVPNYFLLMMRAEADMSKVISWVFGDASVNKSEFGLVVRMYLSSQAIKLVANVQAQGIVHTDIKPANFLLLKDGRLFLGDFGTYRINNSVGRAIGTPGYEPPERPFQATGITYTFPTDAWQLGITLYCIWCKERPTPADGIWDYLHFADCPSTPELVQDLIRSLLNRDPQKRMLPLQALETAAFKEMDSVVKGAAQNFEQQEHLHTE
# Molecular target: T1, 重组弓形虫毒力因子ROP18
# Test: SPR, Biacore T100, 1:1 binding fit
binder,measurement,value
"弓形虫毒力因子ROP18纳米抗体22号克隆株 (VHH, also called 毒力因子纳米抗体; pMECS-ROP18-22; not shown: tag from the pMECS vector (purified on a nickel column, detected with anti-His a)) VHH: QVQLVESGGGSVQAGGSLRLSCVASRYTYTYSTYCLGWFRQAPGKEREEIAIIDSDGGARYADSVKGRFTISRDNAKSTLYLHMNSLKPDDTAMYSCAAGRPAPSLGYKCMYNSRHKGTLVTVSS",Kd,2.72 nM
